In assay [1] the target is T1, Human CD40 (human, UniProt P25942 21-277). Kind of assay: cell-based or functional assay.
Assay [2] has as its target T1, Human CD40. Kind of assay: cell-based or functional assay. The source holds these as a separate data set.

T1 sequence (P25942 21-277 limits assumed): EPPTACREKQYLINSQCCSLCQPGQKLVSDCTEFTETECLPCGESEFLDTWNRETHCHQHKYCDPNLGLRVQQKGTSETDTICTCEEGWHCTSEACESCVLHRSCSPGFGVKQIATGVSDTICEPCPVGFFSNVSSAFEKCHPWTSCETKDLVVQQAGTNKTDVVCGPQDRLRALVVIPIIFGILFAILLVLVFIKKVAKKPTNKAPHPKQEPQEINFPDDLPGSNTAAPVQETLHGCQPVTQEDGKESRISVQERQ

B1: huAb1v6 (antibody, V domains shown)
VH: EVQLVESGGGLVKPGGSLRLSCAASGFTFSDYGMNWVRQAPGKGLEWIAYISSGRSNIYYADTVKGRFTISRDNAKNSLYLQMNSLRAEDTAVYYCARSWGYFDVWGQGTTVTVSS
VL: DIVMTQSPDSLAVSLGERATINCKSSQSLLNLGNQKNYLTWFQQKPGQPPKLLIYWASTRESGVPDRFSGSGSGTDFTLTISSLQAEDVAVYYCQNDYTYPLTFGQGTKLEIK
In the case of B1, the “Antagonist: Jurkat/Reporter assay IC50” value with Human CD40 [1] was found to be 85 nM.

B2: huAb1v1CDR2v14 (antibody, V domains shown)
VH: EVQLVESGGGLVKPGGSLRLSCAASGFTFSDYGMNWVRQAPGKGLEWIAYISSGRFNIYYADTVKGRFTISRDNAKNSLYLQMNSLRAEDTAVYYCARSWGYFDVWGQGTTVTVSS
VL: DIVMTQSPDSLAVSLGERATINCKSSQSLLNRGNQKNYLTWFQQKPGQPPKLLIYWASTRESGVPDRFSGSGSGTDFTLTISSLQAEDVAVYYCQNDYTYPLTFGQGTKLEIK
Turning to B2, in the assay with Human CD40 [2], the “Antagonist: Jurkat/Reporter assay (IC50 nM)” value stood at 21.9 nM.

B3: huAb1v1CDR2v5 (antibody, V domains shown)
VH: EVQLVESGGGLVKPGGSLRLSCAASGFTFSDYGMNWVRQAPGKGLEWIAYISSGRVNIYYADTVKGRFTISRDNAKNSLYLQMNSLRAEDTAVYYCARSWGYFDVWGQGTTVTVSS
VL: DIVMTQSPDSLAVSLGERATINCKSSQSLLNRGNQKNYLTWFQQKPGQPPKLLIYWASTRESGVPDRFSGSGSGTDFTLTISSLQAEDVAVYYCQNDYTYPLTFGQGTKLEIK
Consider B3, for which the “Antagonist: Jurkat/Reporter assay (IC50 nM)” value with Human CD40 [2] is > 1000 nM.

B4: huAb1v1CDR2v9 (antibody, V domains shown)
VH: EVQLVESGGGLVKPGGSLRLSCAASGFTFSDYGMNWVRQAPGKGLEWIAYISSGRQNIYYADTVKGRFTISRDNAKNSLYLQMNSLRAEDTAVYYCARSWGYFDVWGQGTTVTVSS
VL: DIVMTQSPDSLAVSLGERATINCKSSQSLLNRGNQKNYLTWFQQKPGQPPKLLIYWASTRESGVPDRFSGSGSGTDFTLTISSLQAEDVAVYYCQNDYTYPLTFGQGTKLEIK
Turning to B4, the “Antagonist: Jurkat/Reporter assay (IC50 nM)” value with Human CD40 [2] amounted to 7.06 nM.

B5: huAb1v1CDR2v2 (antibody, V domains shown)
VH: EVQLVESGGGLVKPGGSLRLSCAASGFTFSDYGMNWVRQAPGKGLEWIAYISSGRDNIYYADTVKGRFTISRDNAKNSLYLQMNSLRAEDTAVYYCARSWGYFDVWGQGTTVTVSS
VL: DIVMTQSPDSLAVSLGERATINCKSSQSLLNRGNQKNYLTWFQQKPGQPPKLLIYWASTRESGVPDRFSGSGSGTDFTLTISSLQAEDVAVYYCQNDYTYPLTFGQGTKLEIK
For B5, in the assay with Human CD40 [2], the “Antagonist: Jurkat/Reporter assay (IC50 nM)” value was > 1000 nM.

B6: huAb1v1CDR2v3 (antibody, V domains shown)
VH: EVQLVESGGGLVKPGGSLRLSCAASGFTFSDYGMNWVRQAPGKGLEWIAYISSGRENIYYADTVKGRFTISRDNAKNSLYLQMNSLRAEDTAVYYCARSWGYFDVWGQGTTVTVSS
VL: DIVMTQSPDSLAVSLGERATINCKSSQSLLNRGNQKNYLTWFQQKPGQPPKLLIYWASTRESGVPDRFSGSGSGTDFTLTISSLQAEDVAVYYCQNDYTYPLTFGQGTKLEIK
On to B6, for which, in the assay with Human CD40 [2], the “Antagonist: Jurkat/Reporter assay (IC50 nM)” value came to 219 nM.

B7: huAb1v1CDR2v17 (antibody, V domains shown)
VH: EVQLVESGGGLVKPGGSLRLSCAASGFTFSDYGMNWVRQAPGKGLEWIAYISSGRPNIYYADTVKGRFTISRDNAKNSLYLQMNSLRAEDTAVYYCARSWGYFDVWGQGTTVTVSS
VL: DIVMTQSPDSLAVSLGERATINCKSSQSLLNRGNQKNYLTWFQQKPGQPPKLLIYWASTRESGVPDRFSGSGSGTDFTLTISSLQAEDVAVYYCQNDYTYPLTFGQGTKLEIK
As for B7, the “Antagonist: Jurkat/Reporter assay (IC50 nM)” value with Human CD40 [2] is 504 nM.

B8: huAb1v1CDR2v11 (antibody, V domains shown)
VH: EVQLVESGGGLVKPGGSLRLSCAASGFTFSDYGMNWVRQAPGKGLEWIAYISSGRMNIYYADTVKGRFTISRDNAKNSLYLQMNSLRAEDTAVYYCARSWGYFDVWGQGTTVTVSS
VL: DIVMTQSPDSLAVSLGERATINCKSSQSLLNRGNQKNYLTWFQQKPGQPPKLLIYWASTRESGVPDRFSGSGSGTDFTLTISSLQAEDVAVYYCQNDYTYPLTFGQGTKLEIK
B8: the “Antagonist: Jurkat/Reporter assay (IC50 nM)” value with Human CD40 [2] is > 1000 nM.

B9: huAb1v1CDR2v4 (antibody, V domains shown)
VH: EVQLVESGGGLVKPGGSLRLSCAASGFTFSDYGMNWVRQAPGKGLEWIAYISSGRRNIYYADTVKGRFTISRDNAKNSLYLQMNSLRAEDTAVYYCARSWGYFDVWGQGTTVTVSS
VL: DIVMTQSPDSLAVSLGERATINCKSSQSLLNRGNQKNYLTWFQQKPGQPPKLLIYWASTRESGVPDRFSGSGSGTDFTLTISSLQAEDVAVYYCQNDYTYPLTFGQGTKLEIK
As to B9, the “Antagonist: Jurkat/Reporter assay (IC50 nM)” value in the assay with Human CD40 [2] was found to be 563 nM.

B10: huAb1v1CDR2v12 (antibody, V domains shown)
VH: EVQLVESGGGLVKPGGSLRLSCAASGFTFSDYGMNWVRQAPGKGLEWIAYISSGRKNIYYADTVKGRFTISRDNAKNSLYLQMNSLRAEDTAVYYCARSWGYFDVWGQGTTVTVSS
VL: DIVMTQSPDSLAVSLGERATINCKSSQSLLNRGNQKNYLTWFQQKPGQPPKLLIYWASTRESGVPDRFSGSGSGTDFTLTISSLQAEDVAVYYCQNDYTYPLTFGQGTKLEIK
B10: in the assay with Human CD40 [2], the “Antagonist: Jurkat/Reporter assay (IC50 nM)” value was 236 nM.

B11: huAb1v1CDR2v15 (antibody, V domains shown)
VH: EVQLVESGGGLVKPGGSLRLSCAASGFTFSDYGMNWVRQAPGKGLEWIAYISSGRYNIYYADTVKGRFTISRDNAKNSLYLQMNSLRAEDTAVYYCARSWGYFDVWGQGTTVTVSS
VL: DIVMTQSPDSLAVSLGERATINCKSSQSLLNRGNQKNYLTWFQQKPGQPPKLLIYWASTRESGVPDRFSGSGSGTDFTLTISSLQAEDVAVYYCQNDYTYPLTFGQGTKLEIK
Take B11: the “Antagonist: Jurkat/Reporter assay (IC50 nM)” value in the assay with Human CD40 [2] came out at 340 nM.

B12: huAb1v1CDR2v10 (antibody, V domains shown)
VH: EVQLVESGGGLVKPGGSLRLSCAASGFTFSDYGMNWVRQAPGKGLEWIAYISSGRWNIYYADTVKGRFTISRDNAKNSLYLQMNSLRAEDTAVYYCARSWGYFDVWGQGTTVTVSS
VL: DIVMTQSPDSLAVSLGERATINCKSSQSLLNRGNQKNYLTWFQQKPGQPPKLLIYWASTRESGVPDRFSGSGSGTDFTLTISSLQAEDVAVYYCQNDYTYPLTFGQGTKLEIK
In the case of B12, the “Antagonist: Jurkat/Reporter assay (IC50 nM)” value with Human CD40 [2] stood at 23 nM.

B13: huAb1v1CDR2v13 (antibody, V domains shown)
VH: EVQLVESGGGLVKPGGSLRLSCAASGFTFSDYGMNWVRQAPGKGLEWIAYISSGRHNIYYADTVKGRFTISRDNAKNSLYLQMNSLRAEDTAVYYCARSWGYFDVWGQGTTVTVSS
VL: DIVMTQSPDSLAVSLGERATINCKSSQSLLNRGNQKNYLTWFQQKPGQPPKLLIYWASTRESGVPDRFSGSGSGTDFTLTISSLQAEDVAVYYCQNDYTYPLTFGQGTKLEIK
In the case of B13, the “Antagonist: Jurkat/Reporter assay (IC50 nM)” value with Human CD40 [2] is 62.4 nM.

B14: huAb1v1CDR2v1 (antibody, V domains shown)
VH: EVQLVESGGGLVKPGGSLRLSCAASGFTFSDYGMNWVRQAPGKGLEWIAYISSGRTNIYYADTVKGRFTISRDNAKNSLYLQMNSLRAEDTAVYYCARSWGYFDVWGQGTTVTVSS
VL: DIVMTQSPDSLAVSLGERATINCKSSQSLLNRGNQKNYLTWFQQKPGQPPKLLIYWASTRESGVPDRFSGSGSGTDFTLTISSLQAEDVAVYYCQNDYTYPLTFGQGTKLEIK
Consider B14, for which the “Antagonist: Jurkat/Reporter assay (IC50 nM)” value with Human CD40 [2] is > 1000 nM.

B15: huAb1v1CDR2v6 (antibody, V domains shown)
VH: EVQLVESGGGLVKPGGSLRLSCAASGFTFSDYGMNWVRQAPGKGLEWIAYISSGRLNIYYADTVKGRFTISRDNAKNSLYLQMNSLRAEDTAVYYCARSWGYFDVWGQGTTVTVSS
VL: DIVMTQSPDSLAVSLGERATINCKSSQSLLNRGNQKNYLTWFQQKPGQPPKLLIYWASTRESGVPDRFSGSGSGTDFTLTISSLQAEDVAVYYCQNDYTYPLTFGQGTKLEIK
Take B15: in the assay with Human CD40 [2], the “Antagonist: Jurkat/Reporter assay (IC50 nM)” value is > 1000 nM.

B16: huAb1v1CDR2v8 (antibody, V domains shown)
VH: EVQLVESGGGLVKPGGSLRLSCAASGFTFSDYGMNWVRQAPGKGLEWIAYISSGRINIYYADTVKGRFTISRDNAKNSLYLQMNSLRAEDTAVYYCARSWGYFDVWGQGTTVTVSS
VL: DIVMTQSPDSLAVSLGERATINCKSSQSLLNRGNQKNYLTWFQQKPGQPPKLLIYWASTRESGVPDRFSGSGSGTDFTLTISSLQAEDVAVYYCQNDYTYPLTFGQGTKLEIK
For the molecule B16, the “Antagonist: Jurkat/Reporter assay (IC50 nM)” value in the assay with Human CD40 [2] was > 1000 nM.

B17: huAb1v1CDR2v16 (antibody, V domains shown)
VH: EVQLVESGGGLVKPGGSLRLSCAASGFTFSDYGMNWVRQAPGKGLEWIAYISSGRANIYYADTVKGRFTISRDNAKNSLYLQMNSLRAEDTAVYYCARSWGYFDVWGQGTTVTVSS
VL: DIVMTQSPDSLAVSLGERATINCKSSQSLLNRGNQKNYLTWFQQKPGQPPKLLIYWASTRESGVPDRFSGSGSGTDFTLTISSLQAEDVAVYYCQNDYTYPLTFGQGTKLEIK
Consider B17, for which the “Antagonist: Jurkat/Reporter assay (IC50 nM)” value in the assay with Human CD40 [2] was found to be 30.1 nM.

B18: huAb1v3 (antibody, V domains shown)
VH: EVQLVESGGGLVKPGGSLRLSCAASGFTFSDYGMNWVRQAPGKGLEWVSYISSGRSNIYYADTVKGRFTISRDNAKNSLYLQMNSLRAEDTAVYYCARSWGYFDVWGQGTTVTVSS
VL: DIVMTQSPDSLAVSLGERATINCKSSQSLLNLGNQKNYLTWFQQKPGQPPKLLIYWASTRESGVPDRFSGSGSGTDFTLTISSLQAEDVAVYYCQNDYTYPLTFGQGTKLEIK
Take B18: in the assay with Human CD40 [1], the “Agonist: huCD40 reporter assay IC50” value is 79 nM.

B19: huAb1v2 (antibody, V domains shown)
VH: EVQLVESGGGLVKPGGSLRLSCAASGFTFSDYGMNWVRQAPGKGLEWVSYISSGRSNIYYADTVKGRFTISRDNAKNSLYLQMNSLRAEDTAVYYCARSWGYFDVWGQGTTVTVSS
VL: DIVMTQSPDSLAVSLGERATINCKSSQSLLNTGNQKNYLTWFQQKPGQPPKLLIYWASTRESGVPDRFSGSGSGTDFTLTISSLQAEDVAVYYCQNDYTYPLTFGQGTKLEIK
B19: the “Antagonist: Jurkat/Reporter assay IC50” value in the assay with Human CD40 [1] was > 100 nM.

B20: huAb1v1 (antibody, V domains shown)
VH: EVQLVESGGGLVKPGGSLRLSCAASGFTFSDYGMNWVRQAPGKGLEWIAYISSGRSNIYYADTVKGRFTISRDNAKNSLYLQMNSLRAEDTAVYYCARSWGYFDVWGQGTTVTVSS
VL: DIVMTQSPDSLAVSLGERATINCKSSQSLLNRGNQKNYLTWFQQKPGQPPKLLIYWASTRESGVPDRFSGSGSGTDFTLTISSLQAEDVAVYYCQNDYTYPLTFGQGTKLEIK
As for B20, the “Antagonist: Jurkat/Reporter assay IC50” value in the assay with Human CD40 [1] was found to be 55 nM.

Values taken from patent US20160347850A1 (AbbVie / Abbott, published 2016).
